We go through 1 molecule from US20030171565A1 (VANDERBILT UNIVERSITY, published 2003).

The target in this test is T1, tyrosine phosphatase SHP-1 (human, UniProt P29350 1-595).
T1 construct: mature
The experiment in a line: anti-PZR immunoprecipitation from pervanadate-treated cells, Western blot. On the technique in general: A western blot detects proteins with antibodies after separation by electrophoresis.

T1 sequence (P29350 whole entry): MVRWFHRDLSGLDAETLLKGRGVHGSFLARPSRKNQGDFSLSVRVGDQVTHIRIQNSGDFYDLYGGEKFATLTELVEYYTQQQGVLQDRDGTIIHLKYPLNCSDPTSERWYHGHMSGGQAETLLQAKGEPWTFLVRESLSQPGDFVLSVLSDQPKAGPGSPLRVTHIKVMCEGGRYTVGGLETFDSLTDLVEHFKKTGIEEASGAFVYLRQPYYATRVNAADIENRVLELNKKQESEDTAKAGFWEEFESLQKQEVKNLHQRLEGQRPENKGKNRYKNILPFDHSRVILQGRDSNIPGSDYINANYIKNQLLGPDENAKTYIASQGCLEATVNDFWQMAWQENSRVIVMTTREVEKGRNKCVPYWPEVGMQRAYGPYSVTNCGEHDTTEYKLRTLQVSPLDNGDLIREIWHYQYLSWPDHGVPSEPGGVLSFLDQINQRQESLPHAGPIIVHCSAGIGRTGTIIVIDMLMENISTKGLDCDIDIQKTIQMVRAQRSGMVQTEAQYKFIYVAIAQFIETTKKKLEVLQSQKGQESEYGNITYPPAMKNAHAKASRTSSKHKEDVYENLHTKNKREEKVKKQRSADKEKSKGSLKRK

B1: protein zero related (PZR), tyrosine-phosphorylated (receptor)
chain: SALEVYTPKEIFVANGTQGKLTCKFKSTSTTGGLTSVSWSFQPEGADTTVSFFHYSQGQVYLGNYPPFKDRISWAGDLDKKDASINIENMQFIHNGTYICDVKNPPDIVVQPGHIRLYVVEKENLPVFPVWVVVGIVTAVVLGLTLLISMILAVLYRRKNSKRDYTGCSTSESLSPVKQAPRKSPSDTEGLVKSLPSGSHQGPVIYAQLDHSGGHHSDKINKSESVVYADIRKN
modifications: phosphotyrosine at 241 and 263 (cells treated with pervanadate, or cells expressing catalytically inactive SHP-2); N-glycosylated
notes: It was assayed in Triton X-100 cell extracts or as protein purified from 293 cells; also called hPZR; p43
On to B1, for which the binding result was “no binding”.
